Non-standard residues stand in square brackets, D forms with d. No end group written: not given here. pY = N[C@@H](Cc1ccc(OP(=O)(O)O)cc1)C(=O)O

The experiment has as its target T1, HTP-2 protein (full length) (C. elegans).
T1 construct: HTP-2, HORMA domain protein of the meiotic chromosome axis, C. elegans, full length; also called HTP-2 proteins
As to the kind of experiment: fluorescence polarisation; 50 nM FITC peptide with various concentrations of HTP-2; 20 mM Tris pH 7.5, 300 mM NaCl, 10% glycerol, 1 mM DTT, 0.1% NP-40; 1 hour at room temperature; 384-well plates; single-site binding model. The note with it: both partners purified.
What is called Kd is the free concentration of one partner at which half of the binding sites on the other are occupied at equilibrium, for simple one-to-one binding. Read a high Kd as weaker binding. In turn, RDSPYGLSQGITKKNKD (also: fluorescein (FITC) conjugated, site not given here) [HIM-3 closure motif peptide, unmodified (wild type), fluorescein-tagged] displayed a Kd of 5.8 µM.

For the molecule RDSP[pY]GLSQGITKKNKD (also: fluorescein (FITC) conjugated, site not given here) [HIM-3 closure motif peptide phosphorylated at Tyr279, fluorescein-tagged], binding was characterised by a dissociation constant (Kd) of 16.1 µM.

For RDSPYGLAQGITKKNKD (also: fluorescein (FITC) conjugated, site not given here) [HIM-3 closure motif peptide with the S282A substitution, fluorescein-tagged], the Kd amounted to 11.3 µM.

For the origin of these results see publication PMC7717579, “Phosphoregulation of HORMA domain protein HIM-3 promotes asymmetric synaptonemal complex disassembly in meiotic prophase in Caenorhabditis elegans” (PLoS Genetics, 2020).
